Paper PMC2691479, “SNX4 in Complex with Clathrin and Dynein: Implications for Endosome Movement” (PLoS ONE, 2009)

Biological target: T1, Sorting nexin 4 (SNX4), endogenous (human (endogenous in HEK293), UniProt O95219 1-450)
T1 construct: SNX4, endogenous in HEK293 cells, precipitated with anti-SNX4 (E-18); source: endogenous, HEK293 lysate
T1 sequence (looked up): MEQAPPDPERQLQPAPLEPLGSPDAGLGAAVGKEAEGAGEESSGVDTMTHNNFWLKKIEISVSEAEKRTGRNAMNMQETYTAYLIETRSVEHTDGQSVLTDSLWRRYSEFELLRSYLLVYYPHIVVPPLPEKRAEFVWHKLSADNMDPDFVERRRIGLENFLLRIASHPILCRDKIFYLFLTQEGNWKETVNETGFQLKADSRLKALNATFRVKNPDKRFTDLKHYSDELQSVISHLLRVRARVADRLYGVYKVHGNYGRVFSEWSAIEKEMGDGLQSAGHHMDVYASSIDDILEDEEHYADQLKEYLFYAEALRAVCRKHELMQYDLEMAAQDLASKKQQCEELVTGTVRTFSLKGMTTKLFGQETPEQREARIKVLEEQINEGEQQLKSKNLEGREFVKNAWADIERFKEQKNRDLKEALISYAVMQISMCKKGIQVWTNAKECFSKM
Experiment: co-IP; anti-SNX4 (E-18) on Protein A Sepharose, HEK293 lysate (0.1 M NaCl, 10 mM Na2HPO4 pH 7.4, 1 mM EDTA, 1% Triton X-100), overnight at 4°C, Western blot; cells untreated, or transfected with control, SNX4 or CHC siRNA, or treated with nocodazole for 30 min
Details: partners not purified

- fold change of CHC binding to SNX4, nocodazole-treated against untreated cells: 2.3 fold
B1: clathrin heavy chain (CHC), endogenous (natural protein, human (endogenous in HEK293), UniProt Q00610 1-1675, looked up)
chain: MAQILPIRFQEHLQLQNLGINPANIGFSTLTMESDKFICIREKVGEQAQVVIIDMNDPSNPIRRPISADSAIMNPASKVIALKAGKTLQIFNIEMKSKMKAHTMTDDVTFWKWISLNTVALVTDNAVYHWSMEGESQPVKMFDRHSSLAGCQIINYRTDAKQKWLLLTGISAQQNRVVGAMQLYSVDRKVSQPIEGHAASFAQFKMEGNAEESTLFCFAVRGQAGGKLHIIEVGTPPTGNQPFPKKAVDVFFPPEAQNDFPVAMQISEKHDVVFLITKYGYIHLYDLETGTCIYMNRISGETIFVTAPHEATAGIIGVNRKGQVLSVCVEEENIIPYITNVLQNPDLALRMAVRNNLAGAEELFARKFNALFAQGNYSEAAKVAANAPKGILRTPDTIRRFQSVPAQPGQTSPLLQYFGILLDQGQLNKYESLELCRPVLQQGRKQLLEKWLKEDKLECSEELGDLVKSVDPTLALSVYLRANVPNKVIQCFAETGQVQKIVLYAKKVGYTPDWIFLLRNVMRISPDQGQQFAQMLVQDEEPLADITQIVDVFMEYNLIQQCTAFLLDALKNNRPSEGPLQTRLLEMNLMHAPQVADAILGNQMFTHYDRAHIAQLCEKAGLLQRALEHFTDLYDIKRAVVHTHLLNPEWLVNYFGSLSVEDSLECLRAMLSANIRQNLQICVQVASKYHEQLSTQSLIELFESFKSFEGLFYFLGSIVNFSQDPDVHFKYIQAACKTGQIKEVERICRESNCYDPERVKNFLKEAKLTDQLPLIIVCDRFDFVHDLVLYLYRNNLQKYIEIYVQKVNPSRLPVVIGGLLDVDCSEDVIKNLILVVRGQFSTDELVAEVEKRNRLKLLLPWLEARIHEGCEEPATHNALAKIYIDSNNNPERFLRENPYYDSRVVGKYCEKRDPHLACVAYERGQCDLELINVCNENSLFKSLSRYLVRRKDPELWGSVLLESNPYRRPLIDQVVQTALSETQDPEEVSVTVKAFMTADLPNELIELLEKIVLDNSVFSEHRNLQNLLILTAIKADRTRVMEYINRLDNYDAPDIANIAISNELFEEAFAIFRKFDVNTSAVQVLIEHIGNLDRAYEFAERCNEPAVWSQLAKAQLQKGMVKEAIDSYIKADDPSSYMEVVQAANTSGNWEELVKYLQMARKKARESYVETELIFALAKTNRLAELEEFINGPNNAHIQQVGDRCYDEKMYDAAKLLYNNVSNFGRLASTLVHLGEYQAAVDGARKANSTRTWKEVCFACVDGKEFRLAQMCGLHIVVHADELEELINYYQDRGYFEELITMLEAALGLERAHMGMFTELAILYSKFKPQKMREHLELFWSRVNIPKVLRAAEQAHLWAELVFLYDKYEEYDNAIITMMNHPTDAWKEGQFKDIITKVANVELYYRAIQFYLEFKPLLLNDLLMVLSPRLDHTRAVNYFSKVKQLPLVKPYLRSVQNHNNKSVNESLNNLFITEEDYQALRTSIDAYDNFDNISLAQRLEKHELIEFRRIAAYLFKGNNRWKQSVELCKKDSLYKDAMQYASESKDTELAEELLQWFLQEEKRECFGACLFTCYDLLRPDVVLETAWRHNIMDFAMPYFIQVMKEYLTKVDKLDASESLRKEEEQATETQPIVYGQPQLMLTAGPSVAVPPQAPFGYGYTAPPYGQPQPGFGYSM
notes: clathrin heavy chain, endogenous in HEK293 cells, detected with anti-CHC; source: endogenous, HEK293 lysate
